In PMC12048575, “Structure of the complex of C1q-like 3 protein with adhesion-GPCR BAI3” (Communications Biology, 2025):

Target: T1, Mouse BAI3 N-terminal domain (NTD) encompassing residues 26-290 (mouse, UniProt Q80ZF8 26-290)
T1 construct: The vector encodes a 3C site, an Fc-tag and a C-terminal His tag after the NTD; the His tag lies after the 3C site and so was probably removed with the Fc; also called BAI3 NTD; BAI3 CUB domain; source: HEK293S GnTI- cells, BacMam virus (pVLAD8L), secreted, purified (Ni2+-NTA, 3C cleavage, SEC); not shown: Fc, C-terminal, cleaved
T1 sequence (looked up): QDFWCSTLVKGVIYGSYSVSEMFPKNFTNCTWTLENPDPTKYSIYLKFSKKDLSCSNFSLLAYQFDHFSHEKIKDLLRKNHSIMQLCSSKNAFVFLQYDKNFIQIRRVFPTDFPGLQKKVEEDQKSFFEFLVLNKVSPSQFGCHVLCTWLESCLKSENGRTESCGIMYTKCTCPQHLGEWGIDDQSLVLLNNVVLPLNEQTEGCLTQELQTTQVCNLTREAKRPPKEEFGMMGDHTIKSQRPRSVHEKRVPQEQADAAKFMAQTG
Experiment: SEC; purified proteins mixed, size-exclusion chromatography and Coomassie-stained SDS-PAGE of fractions; 1x HBS (10 mM HEPES pH 7.2, 150 mM NaCl) with 2 mM CaCl2
Conditions: both partners purified

B1: C1ql3 globular C1q-like domain (residues 122-255) (domain or fragment, mouse, UniProt Q9ESN4 122-255, looked up)
chain: STVPKIAFYAGLKRQHEGYEVLKFDDVVTNLGNHYDPTTGKFTCSIPGIYFFTYHVLMRGGDGTSMWADLCKNNQVRASAIAQDADQNYDYASNSVVLHLEPGDEVYIKLDGGKAHGGNNNKYSTFSGFIIYAD
notes: C1q-like 3 protein (C1ql3), mouse, C1q-like domain, residues 122-255; buffer contained 2 mM CaCl2; The tag is surmised from the Ni-NTA step; also called C1q-like domain trimer of C1ql3; C1ql3 C1q-like domain; source: Expi293F GnTI- cells, transfected (pEG BacMam), purified (Ni2+-NTA, SEC)
**Q.** Does B1 bind?
**A.** Result: binds
